Experimental data reported in patent publication US20130136743A1 (LABORATOIRE FRANCAIS DU FRACTIONNEMENT ET DES …, published 2013).
Numbering of substitutions follows the chain as printed. In names and notes the source's numbering stands.

B1: mutated humanized 12G4 antibody 6B-78 produced in YB2/0 (antibody, human IgG1, kappa, V domains shown)
VH: QVQLVQSGAEVKKPGASVKVSCKASGYTFTSYHIHWVRQAPGQRLEWMGWIYPGDDSTKYSQKFQGRVTITRDTSASTAYMELSSLRSEDTAVYYCTRGDRFAYWGQGTLVTVSS
VL: DIQMTQSPSTLSASVGDRVTITCRASSSVRYIAWYQQKPGKAPKLLIYSTSSLKSGVPSRFSGSGSGTEFTLTISSLQPDDFATYYCLQWSSYPWTFGGGTKVEIKR
notes: Chains without leader; Mutation VL-E184K; also called 6B_78 YB2/0; R901 6B78
B2: mutated humanized 12G4 antibody 3C-23 produced in YB2/0 (antibody, human IgG1, kappa, V domains shown)
VH: B1 VH with Q3R
VL: B1 VL with I47T, S49P, K54E
notes: Chains without leader; Mutations VH-Q3R, VL-I177T/S179P; also called 3C_23 YB2/0; R901 3C23
B3: murine 12G4 monoclonal antibody (antibody, V domains shown)
VH: QVQLQQSGPELVKPGASVRMSCKASGYTFTSYHIHWVKQRPGQGLEWIGWIYPGDDSTKYNEKFKGKTTLTADKSSSTAYMLLSSLTSEDSAIYFCTRGDRFAYWGQGTLVTVSA
VL: QIVLTQSPAIMSASLGEGITLTCSASSSVRYIHWYQQKSGTSPKLLIYSTSNLASGVPSRFSGSGSGTFHSLTISSVEAEDAADYYCLQWSSYPWTFGGGTKLEIK
notes: also called mLFB112; original murine 12G4 antibody

Key:
[1] = biological target: T1, AMHRII receptor expressed on cells (cov434-AMHRII, Asc 1, META 2815) (human, UniProt Q16671 18-573); assay: cell-based or functional assay
T1 sequence (looked up): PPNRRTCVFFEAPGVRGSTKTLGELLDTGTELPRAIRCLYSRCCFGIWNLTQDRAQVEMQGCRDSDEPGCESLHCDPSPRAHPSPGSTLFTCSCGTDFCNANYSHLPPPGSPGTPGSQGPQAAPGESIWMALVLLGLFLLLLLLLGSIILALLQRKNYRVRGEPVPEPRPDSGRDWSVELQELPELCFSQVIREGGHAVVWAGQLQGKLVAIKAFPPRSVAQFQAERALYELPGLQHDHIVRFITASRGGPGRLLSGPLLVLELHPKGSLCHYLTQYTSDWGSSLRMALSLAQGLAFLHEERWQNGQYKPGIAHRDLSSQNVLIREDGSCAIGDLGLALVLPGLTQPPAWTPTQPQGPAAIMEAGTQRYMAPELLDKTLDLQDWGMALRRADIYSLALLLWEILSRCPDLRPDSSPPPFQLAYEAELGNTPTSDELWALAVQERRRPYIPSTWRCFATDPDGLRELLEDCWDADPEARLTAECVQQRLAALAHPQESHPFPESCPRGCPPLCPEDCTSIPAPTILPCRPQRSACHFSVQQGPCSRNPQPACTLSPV

[2] = biological target: T1, AMHRII receptor expressed on cells …; assay: cell-based or functional assay; remark: listed apart in the source
[3] = biological target: T1, AMHRII receptor expressed on cells …; assay: cell-based or functional assay; remark: listed apart in the source
[4] = biological target: T2, AMHR-II/Fc fusion protein (human, UniProt Q16671 18-149, limits assumed); assay: SPR, BIAcore X100; ratio against the chimeric 12G4
T2 construct: also called AMHR-II recombinant receptor expressed in the form of fusion protein with a region Fc; recombinant target; not shown: Fc region
Experimental: (§1) The affinity of the antibodies for their antigen, AMHR-II, is determined by the SPR (Surface Plasmon Resonance) technique on BIACore X100 (BIACore, GE Healthcare). The AMHR-II recombinant receptor, expressed in the form of fusion protein with a region Fc, is immobilized by covalent coupling between its amine functions and the carboxyl groups of dextran activated in succinimide esters, present on the surface of the type CM5 sensor chip. The COOH groups of the sensor chip are activated for 7 minutes with EDC/NHS mixture (0.1 M of N-hydroxysuccinimide and 0.1 M of 3-(N,N-dimethylamino)propyl-N-ethylcarbodiimide) at a flow of 10 μl/min then the AMHR-II/Fc fusion protein, diluted to 5 μg/ml in 10 mM sodium acetate buffer, pH 4.0, is injected at […] on track 2 of the sensor chip so as to reach 300 RU. The ester groups that have not reacted with the amines of the fusion protein are deactivated by injection of a solution of ethanolamine-HCl 1M, pH 8.5 for 7 min at a flow of 10 μl:min. Track 1, serving as negative control, was activated and deactivated like track 2.
(§2) All the measurements are carried out at 25° C. The antibodies to be analysed are diluted in HBS-EP running buffer (BIACore, GE Healthcare) at concentrations from 6.25 to 3333 nM and injected on the sensor chip for 2 min at a flow of 30 μl/min. The dissociation step is monitored for 10 min and then the surface is regenerated by injection of 10 mM glycine buffer, pH 1.5 for 30 s at 10 μl/min.
(§3) The sensorgrams obtained are analysed using the 1:2 kinetic model of the BIAevaluation 3.1 software.

[5] = biological target: T2, AMHR-II/Fc fusion protein; assay: SPR, BIAcore X100; AMHR-II/Fc immobilised on CM5 chip, antibody injected; 25 C
Experimental: as §1, §2, §3

[6] = biological target: T1, AMHRII receptor expressed on cells …; assay: saturation binding of 125I-labelled antibody to cov434-AMHRII cells, Scatchard analysis
Experimental: Briefly, KD was determined by the saturation method, by adding increasing doses of radiolabelled antibody to a constant number of cov434-AMHRII cells. […] For each antibody, fourfold dilutions were carried out in PBS/BSA 0.5% from the solutions of labelled and unlabelled antibody (84.4 μg/ml). The nonspecific fixation was evaluated by incubating the cells in the presence of a 100 times molar excess of unlabelled antibody.
After incubation, the samples were frozen in liquid nitrogen and then analysed in a gamma counter. The specific fixation was determined by subtracting the fixation obtained in the presence of an excess of unlabelled antibody.

[7] = biological target: T3, Epitope peptide GGGGNLTQDRAQVEMQGSR; assay: method not stated; Example 2, heading names cov434-AMHR-II cells and the epitope peptide
T3 peptide: GGGGNLTQDRAQVEMQGSR

| Binder | 50% relative, ADCC on the COV434-AMHRII line (chimeric antibody = 1) [1] | % of lysis of ASC1 cells (ADCC with NK cells, LDH release) at 0.001 ng/ml antibody [2] | % of lysis of ASC1 cells (ADCC with NK cells, LDH release) at 0.005 ng/ml antibody [2] | % of lysis of ASC1 cells (ADCC with NK cells, LDH release) at 0.05 ng/ml antibody [2] | % of lysis of ASC1 cells (ADCC with NK cells, LDH release) at 0.5 ng/ml antibody [2] | % of lysis of ASC1 cells (ADCC with NK cells, LDH release) at 5 ng/ml antibody [2] | % of lysis of ASC1 cells (ADCC with NK cells, LDH release) at 50 ng/ml antibody [2] | % of lysis of ASC1 cells (ADCC with NK cells, LDH release) at 500 ng/ml antibody [2] | % of lysis of ASC1 cells (ADCC with NK cells, LDH release) at 5000 ng/ml antibody [2] | EC50 (ng/ml), ADCC on ASC1 cells [3] | Emax (% of lysis), ADCC on ASC1 cells [3] | KD chimeric/KD mutated [4] | Kd [5] | koff [5] | kon [5] | Kd [6] | Kd [7] | koff [7] |
| --- | --- | --- | --- | --- | --- | --- | --- | --- | --- | --- | --- | --- | --- | --- | --- | --- | --- | --- |
| B1 | 36.9 | 0% | 14% | 5% | 3% | 28% | 42% | 48% | 53% | 5.38 ng/mL | 51.9 % of lysis | 2.6 | 0.082 µM | 0.0013 s⁻¹ | 16000 M⁻¹ s⁻¹ | 0.00668 µM |  |  |
| B2 | 6.41 | 0% | 8% | 9% | 13% | 35% | 46% | 52% | 63% | 6.3 ng/mL | 65.5 % of lysis | 2.3 | 0.092 µM | 0.0033 s⁻¹ | 36000 M⁻¹ s⁻¹ | 0.00733 µM |  |  |
| B3 |  |  |  |  |  |  |  |  |  |  |  |  |  |  |  | 0.0154 µM | ~0.1 µM | 0.00147 s⁻¹ |
